Reference: patent US20190092852A1 (Genentech, published 2019)
Each block holds one binder with its values, some of them ahead of it.

How the values were obtained:
[1] = biological target: T1, human IL-33 (R&D Systems, #3625-IL-010/CF) (human, UniProt O95760 112-270); experiment: cell-based or functional assay
T1 sequence (looked up): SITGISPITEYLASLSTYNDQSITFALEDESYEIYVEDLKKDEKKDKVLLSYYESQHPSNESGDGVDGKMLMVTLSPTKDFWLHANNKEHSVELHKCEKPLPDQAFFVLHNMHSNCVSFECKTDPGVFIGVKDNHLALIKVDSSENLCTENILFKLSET

[2] = biological target: T2, biotinylated human IL-33 (human, UniProt O95760 112-270, biotin-labeled with EZ-LINK NHS-PEG4-Biotin); experiment: competitive ELISA, biotin-huIL-33 to coated hST2-Fc
T2 construct: also called biotin-huIL-33
T2 sequence (looked up): T1 sequence (looked up)

[3] = biological target: T3, biotinylated cyno IL-33 (cynomolgus monkey, UniProt A0A2K5W3I1 112-269, biotin-labeled with EZ-LINK NHS-PEG4-Biotin); experiment: competitive ELISA, biotin-cyIL-33 to coated hST2-Fc
T3 construct: also called biotin-cyIL-33
T3 sequence: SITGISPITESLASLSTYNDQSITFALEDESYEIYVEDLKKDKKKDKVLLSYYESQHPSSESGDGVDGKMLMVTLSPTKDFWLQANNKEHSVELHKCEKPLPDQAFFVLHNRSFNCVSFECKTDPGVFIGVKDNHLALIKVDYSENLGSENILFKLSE
How it was run: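 Recombinant human ST2-Fc coated at 1 μg/ml; biotin-IL-33 (final 20 pM human, 45 pM cyno) premixed 1 h RT with serially diluted antibody (0–300 nM final), then bound to ST2-Fc 1 h RT. Streptavidin-polyHRP/TMB, A450; IC₅₀ from four-parameter fit, max blocking relative to IL-33-alone signal minus background.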

[4] = biological target: T1, human IL-33 (R&D Systems, …); experiment: cell-based or functional assay; remark: listed apart in the source
[5] = biological target: T1, human IL-33 (R&D Systems, …); experiment: SPR Biacore T200, 25 C
How it was run: (§1)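 Antibodies captured via anti-Fc on CM5 chip; IL-33 injected at 3.7–100 nM (three-fold series), 4 min association, 10 min dissociation, 30 μl/min, ADA pH 7.4 buffer with 0.15 M NaCl, EDTA, Tween-20, at 25 °C or 37 °C. KD = koff/kon from 1:1 Langmuir fit; t1/2 = ln(2)/(60*koff).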

[6] = biological target: T4, cyno IL-33 N-His (cynomolgus monkey); experiment: SPR Biacore T200, 25 C
T4 chain: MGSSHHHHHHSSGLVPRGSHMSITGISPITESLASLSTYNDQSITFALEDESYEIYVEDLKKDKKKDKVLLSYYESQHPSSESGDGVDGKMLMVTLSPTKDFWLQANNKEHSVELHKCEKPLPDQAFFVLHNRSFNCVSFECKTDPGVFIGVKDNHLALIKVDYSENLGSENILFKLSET
How it was run: as §1

[7] = biological target: T4, cyno IL-33 N-His; experiment: SPR Biacore T200, 37 C
How it was run: as §1

IC50; IFN-gamma ELISA, primary human NK cells, 260 pM hIL-33 + IL-12 [1]: 5.1e-10 M
IC50 [2]: 0.23 nM
Maximum Blocking [2]: 88%
IC50 [3]: 47 nM
Maximum Blocking [3]: 42%
Ph-p38 MFI at 2 nM Ab (500 pM human IL-33, primary basophils) [4]: 49 MFI
Kd [5]: 1.09 nM
koff [5]: 0.000499 s⁻¹
kon [5]: 456000 M⁻¹ s⁻¹
t1/2 [5]: 23 min
Kd [6]: 2.61 nM
koff [6]: 0.000479 s⁻¹
kon [6]: 183000 M⁻¹ s⁻¹
t1/2 [6]: 24 min
Kd [7]: 4.13 nM
koff [7]: 0.00114 s⁻¹
kon [7]: 277000 M⁻¹ s⁻¹
t1/2 [7]: 10 min
B1: H4H9659P (antibody, IgG4, V domains shown)
VH: QVQLVQSGAEVKKPGASVKVSCKASGYTFNSYGISWVRQAPGQGLEWMGWISSHNGNSHYVQKFQGRVSMTTDTSTSTAYMELRSLRSDDTAVYYCARHSYTTSWYGGFDYWGQGTLVTVSS
VL: DIQMTQSPSSVSASVGDRVTITCRASQGFSSWLAWYQQKPGKAPQLLIYAASSLQSGVPSRFSGSGSGSDFTLTISSLQPEDFATYYCQQANSFPLTFGGGTKVEIK
notes: also called RG7

IC50; IFN-gamma ELISA, primary human NK cells, 260 pM hIL-33 + IL-12 [1]: 3.3e-11 M
IC50 [2]: 0.021 nM
Maximum Blocking [2]: 92%
IC50 [3]: 0.43 nM
Maximum Blocking [3]: 87%
Ph-p38 MFI at 2 nM Ab (500 pM human IL-33, primary basophils) [4]: 23 MFI
Kd [5]: 0.133 nM
koff [5]: 0.000613 s⁻¹
kon [5]: 4.6e+06 M⁻¹ s⁻¹
t1/2 [5]: 19 min
Kd [6]: 0.265 nM
koff [6]: 0.000278 s⁻¹
kon [6]: 1.05e+06 M⁻¹ s⁻¹
t1/2 [6]: 42 min
Kd [7]: 0.476 nM
koff [7]: 0.000804 s⁻¹
kon [7]: 1.69e+06 M⁻¹ s⁻¹
t1/2 [7]: 14 min
B2: 10C12.38.H6.87Y.58I IgG4 (antibody, V domains shown)
VH: EVQLVESGGGLVQPGGSLRLSCAASGFTFSSFSMSWVRQAPGKGLEWVATISGGKTFTDYVDSVKGRFTISRDDSKNTLYLQMNSLRAEDTAVYYCTRANYGNWFFEVWGQGTLVTVSS
VL: EIVLTQSPATLSLSPGERATLSCRASESVAKYGLSLLNWFQQKPGQPPRLLIFAASNRGSGIPARFSGSGSGTDFTLTISSLEPEDFAVYYCQQSKEVPFTFGQGTKVEIKR
notes: also called anti-IL33 10C12.38.H6.87Y.58I IgG4
